Measured values taken from patent US20240228568A1 (CENTRO DE INGENIER A GEN TICA Y BIOTECNOLOG A, published 2024).
Where no end group is shown, it is not given here. [ ]: non-standard residue; d: D form.

T1: IL-15 receptor subunit on CTLL-2 cells
T1 sequence (Q60819 whole entry, species assumed, looked up): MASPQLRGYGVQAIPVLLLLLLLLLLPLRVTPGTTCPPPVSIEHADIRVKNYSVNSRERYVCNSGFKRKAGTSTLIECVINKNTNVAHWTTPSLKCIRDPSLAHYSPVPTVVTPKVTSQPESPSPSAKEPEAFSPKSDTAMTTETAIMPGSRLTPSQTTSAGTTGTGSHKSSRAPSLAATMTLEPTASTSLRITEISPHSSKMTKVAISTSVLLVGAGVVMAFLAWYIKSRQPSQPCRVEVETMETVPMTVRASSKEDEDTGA


What was measured:
[1] = molecular target: T1, IL-15 receptor subunit on CTLL-2 cells; assay: cell-based or functional assay
[2] = molecular target: T1, IL-15 receptor subunit on CTLL-2 cells; assay: cell-based or functional assay; remark: listed apart in the source

IC50 in the CTLL-2 cell proliferation assay [1] | antagonist effect on IL-15-induced proliferation, fold against Peptide 1 [2] | antagonist effect on IL-15-induced proliferation, fold against Peptide 5 [2] | Binder
28 µM |  |  | KVT[dA]MKCFLL-NH2 [Peptide 5]
8 µM | 16 times | 3 times | KVT[dA]MKCFLL-NH2 (also: disulfide-linked homodimer through the Cys) [Peptide 12]
130 µM |  |  | KVTAMKCFLL (not fully specified (C-terminus)) [Peptide 1]
